In patent US20200109211A1 (ELSALYS BIOTECH, published 2020):
Substitutions are numbered along the chain they refer to. Names and notes keep the numbering of the source. Each block holds one binder with its values, some of them ahead of it.

Key:
[1] = biological target: T1, recombinant human CD160 protein, soluble form, with a C-terminal tag of 6 histidine residues (R&D SYSTEMS) (human, UniProt O95971 27-159, limits assumed, biotinylated with EZ-Link sulfo-NHS-LC-biotin for BLI and ELISA; not biotinylated when immobilised on the CM5 chip for SPR); assay: BLI (Octet K2), biotinylated hCD160-His on streptavidin sensor, antibody as analyte
T1 construct: domain: soluble form; Bought protein; also called hCD160-his; biotinylated CD160
T1 sequence: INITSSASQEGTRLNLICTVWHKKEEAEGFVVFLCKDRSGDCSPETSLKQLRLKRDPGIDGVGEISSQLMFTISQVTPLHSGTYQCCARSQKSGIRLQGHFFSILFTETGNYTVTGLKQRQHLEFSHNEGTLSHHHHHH
Procedure: (§1) All the experiments were carried out at 30° C. in the running buffer recommended by Fortebio (PBS with 0.1% (p/v) of bovine serum albumin (BSA) and 0.02% (v/v) Tween-20). This buffer was also used for diluting the various ligands and analytes. The samples deposited in a 96-well microplate (cat #738-0026, Dutscher) were shaken at 1000 revolutions per minute.
Between the measurements, the surfaces of the biosensor were regenerated by exposing them to 3 cycles of 5 sec in 10 mM glycine, pH 2, followed by 5 sec in running buffer. The association and dissociation phases were measured for 300 seconds. All the measurements were corrected for the basic drift by subtracting a reference well with a ligand subjected only to the running buffer.
(§2) The dissociation constants and the association (kₒₙ) and dissociation (kdis) rate constants for each antibody were calculated by applying a 1:1 interaction model, with overall mathematical modelling of curves (fit) (Rmax bound by the sensor) on the ForteBio 9.0 data analysis software.

[2] = biological target: T2, human CD160 (CD160 GPI isoform) on cells (human, UniProt O95971 25-159, GPI anchor); assay: cell-based or functional assay
T2 sequence (looked up): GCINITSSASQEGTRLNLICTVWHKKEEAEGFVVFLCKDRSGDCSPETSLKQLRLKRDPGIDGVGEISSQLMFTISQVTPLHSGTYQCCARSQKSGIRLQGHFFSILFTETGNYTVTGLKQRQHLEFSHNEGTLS

[3] = biological target: T2, human CD160 (CD160 GPI isoform) on cells; assay: flow cytometry on CHO-hCD160 transfectants
Procedure: The binding capacity of the anti-CD160 H7 antibodies and of the variants (D12 and A09) thereof in the IgG4 and IgG1 format and in the IgG1 E345K format was evaluated during the labelling of surface CD160 expressed in a recombinant line CHO-S-hCD160 (clone 2G10) in comparison with non-transfected CHO-S cells, by measuring the median fluorescence index (MFI) (see FIG. 1). For this, 5×10⁺⁵ 2G10 (CHO-S-CD160) and non-transfected CHO-S cells were labelled with 2 μg of each of these antibodies and also with the appropriate control isotypes. In FIG. 1, all the anti-CD160 tested (regardless of the isotype or the IgG format or the variant) specifically recognize human CD160 expressed recombinantly by the CHO-S cells.
In FIG. 1B, the IgG4 variants bind more efficiently to the CHO-hCD160 transfectants than H7 (which results in a median fluorescence increased by a factor of 2 compared with H7 IgG4 ELB01101 or with H7 IgG4 H310A-H435Q ELB01102), this being even in the presence of the H310A-H435Q mutations.

[4] = biological target: T1, recombinant human CD160 protein, …; assay: BLI, biotinylated CD160 at 10 nM on streptavidin sensor, antibody 3.13-100 nM
Procedure: as §1, §2

[5] = biological target: T1, recombinant human CD160 protein, …; assay: BLI
[6] = biological target: T1, recombinant human CD160 protein, …; assay: BLI (repeats Table 8)
[7] = biological target: T1, recombinant human CD160 protein, …; assay: SPR (Biacore), design close to Example 2
[8] = biological target: T1, recombinant human CD160 protein, …; assay: BLI, biotinylated CD160 at 10 nM on streptavidin sensor, antibody 3.13-100 nM; remark: listed apart in the source
[9] = biological target: T1, recombinant human CD160 protein, …; assay: BLI (repeats Table 9)
[10] = biological target: T1, recombinant human CD160 protein, …; assay: BLI, biotinylated CD160 at 10 nM on streptavidin sensor, antibody 3.13-100 nM; remark: listed apart in the source
[11] = biological target: T1, recombinant human CD160 protein, …; assay: BLI (repeats Table 7)
[12] = biological target: T1, recombinant human CD160 protein, …; assay: BLI, biotinylated CD160 at 10 nM on streptavidin sensor, antibody 3.13-100 nM; remark: listed apart in the source
Procedure: as §2

Binding response, at 50 nM of anti-CD160 [1]: 0.41 nm (arbitrary units) | Kd [1]: 14.3 nM | koff [1]: 0.00297 s⁻¹ | kon [1]: 208000 M⁻¹ s⁻¹
B1: chimerized antibody issued from CL1-R2 in the human IgG1 format (antibody, V domains shown)
VH: QVHLQQSGAELARPGASVKLSCKASGYTFTDYWMQWIKQRPGQGLEWIGSIYPGDDDARYTQKFRGKATLTADKSSSTAYMQLSSLASEDSAVYYCARRGIAAVVGGFDYWGQGTTLTVSS
VL: DIVLTQSPATLSVTPGNSVSLSCRASQSISNHLHWYQQKSHESPRLLIKYASQSISGIPSRFSGSGSGTDFTLSINSVETEDFGMYFCQQSNSWPLTFGAGTKLELK
notes: also called chIgG1; chimeric IgG1

Binding response, at 50 nM of anti-CD160 [1]: 0.6 nm (arbitrary units) | Kd [1]: 15.4 nM | koff [1]: 0.00283 s⁻¹ | kon [1]: 183000 M⁻¹ s⁻¹
B2: CL1-R2 murine monoclonal anti-human CD160 antibody (antibody, V domains shown)
VH: B1 VH
VL: B1 VL
notes: Murine IgG1; also called parental CL1-R2; murine anti-CD160 IgG1

Binding response, at 50 nM of anti-CD160 [1]: 0.41 nm (arbitrary units) | Kd [1]: 14.8 nM | koff [1]: 0.00323 s⁻¹ | kon [1]: 218000 M⁻¹ s⁻¹
B3: chimerized antibody issued from CL1-R2 in the human IgG4 format (antibody, V domains shown)
VH: B1 VH
VL: B1 VL
notes: also called chIgG4; chimeric IgG4

EC50 of IFN-gamma production by NK cells, additional improvement against the IgG1 variants [2]: 2 logs | EC50 of IFN-gamma production by NK cells, improvement against ELB02101 [2]: 4 logs | median fluorescence, factor against H7 IgG1 [3]: 3 fold | Kd [4]: 1.93 nM | koff [4]: 0.000825 s⁻¹ | kon [4]: 427000 M⁻¹ s⁻¹
B4: A09 in the IgG1 E345K format (antibody)
heavy: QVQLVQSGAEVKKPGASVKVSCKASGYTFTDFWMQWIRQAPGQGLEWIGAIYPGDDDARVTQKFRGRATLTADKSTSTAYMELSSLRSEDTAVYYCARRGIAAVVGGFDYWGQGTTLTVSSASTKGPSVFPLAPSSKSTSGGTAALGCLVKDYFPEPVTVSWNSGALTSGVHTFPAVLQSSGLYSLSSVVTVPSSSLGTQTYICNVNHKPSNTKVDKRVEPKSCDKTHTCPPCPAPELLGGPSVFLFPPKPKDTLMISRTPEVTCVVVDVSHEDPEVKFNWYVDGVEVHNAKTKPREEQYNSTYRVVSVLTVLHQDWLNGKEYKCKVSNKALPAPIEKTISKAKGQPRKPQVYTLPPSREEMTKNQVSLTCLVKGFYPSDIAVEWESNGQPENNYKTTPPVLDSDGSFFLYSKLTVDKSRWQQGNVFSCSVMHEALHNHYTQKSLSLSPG
light: EIVLTQSPATLSLSPGERATLSCRASQSISNHLHWYQQKPGQAPRLLIKYASQSISGIPARFSGSGSGTDFTLTISSLEPEDFAVYFCQQSNSWPLTFGGGTKVEIKRTVAAPSVFIFPPSDEQLKSGTASVVCLLNNFYPREAKVQWKVDNALQSGNSQESVTEQDSKDSTYSLSSTLTLSKADYEKHKVYACEVTHQGLSSPVTKSFNRGEC
notes: also called ELB02114

Gain in KD/respective IgG [5]: 1.8 fold | Kd [6]: 1.63 nM | koff [6]: 0.000736 s⁻¹ | kon [6]: 453000 M⁻¹ s⁻¹ | Gain in KD/respective IgG [7]: 3.5 fold | Kd [7]: 4.1 nM | koff [7]: 0.000721 s⁻¹ | kon [7]: 176000 M⁻¹ s⁻¹ | Kd [8]: 1.63 nM | koff [8]: 0.000736 s⁻¹ | kon [8]: 453000 M⁻¹ s⁻¹
B5: F04 IgG4 S228P/R409K (antibody)
heavy: QVQLVQSGAEVKKPGASVKVSCKASGYTFSDYWMQWIRQAPGQGLEWIGAIYPGDDDARYTQKFRGRATLTADKSTSTAYMELSSLRSEDTAVYYCARRGIAAVVGGFDYWGQGTTLTVSSASTKGPSVFPLAPCSRSTSESTAALGCLVKDYFPEPVTVSWNSGALTSGVHTFPAVLQSSGLYSLSSVVTVPSSSLGTKTYTCNVDHKPSNTKVDKRVESKYGPPCPPCPAPEFLGGPSVFLFPPKPKDTLMISRTPEVTCVVVDVSQEDPEVQFNWYVDGVEVHNAKTKPREEQFNSTYRVVSVLTVLAQDWLNGKEYKCKVSNKGLPSSIEKTISKAKGQPREPQVYTLPPSQEEMTKNQVSLTCLVKGFYPSDIAVEWESNGQPENNYKTTPPVLDSDGSFFLYSKLTVDKSRWQEGNVFSCSVMHEALHNQYTQKSLSLSLG
light: B4 light
notes: also called ELB01106

Gain in KD/respective IgG [5]: 2.1 fold | EC50 of NK cell activation (IFN-γ, CD69), improvement against ELB02101 [2]: 2 to 3 logs | Kd [9]: 1.43 nM | koff [9]: 0.000531 s⁻¹ | kon [9]: 371000 M⁻¹ s⁻¹ | Gain in KD/respective IgG [7]: 3.3 fold | Kd [7]: 3.6 nM | koff [7]: 0.000726 s⁻¹ | kon [7]: 200000 M⁻¹ s⁻¹ | Kd [10]: 1.43 nM | koff [10]: 0.000531 s⁻¹ | kon [10]: 371000 M⁻¹ s⁻¹
B6: F04 in the IgG1 format (antibody)
heavy: not shown
light: B4 light
notes: also called ELB02103

Kd [11]: 2.61 nM | koff [11]: 0.00123 s⁻¹ | kon [11]: 469000 M⁻¹ s⁻¹ | Kd [7]: 13.1 nM | koff [7]: 0.00285 s⁻¹ | kon [7]: 218000 M⁻¹ s⁻¹ | Kd [12]: 2.61 nM | koff [12]: 0.00123 s⁻¹ | kon [12]: 469000 M⁻¹ s⁻¹ | Binding response, at 50 nM of anti-CD160 [1]: 0.6 nm (arbitrary units) | Kd [1]: 4.49 nM | koff [1]: 0.00157 s⁻¹ | kon [1]: 350000 M⁻¹ s⁻¹
B7: H7 IgG4 S228P/R409K (antibody)
heavy: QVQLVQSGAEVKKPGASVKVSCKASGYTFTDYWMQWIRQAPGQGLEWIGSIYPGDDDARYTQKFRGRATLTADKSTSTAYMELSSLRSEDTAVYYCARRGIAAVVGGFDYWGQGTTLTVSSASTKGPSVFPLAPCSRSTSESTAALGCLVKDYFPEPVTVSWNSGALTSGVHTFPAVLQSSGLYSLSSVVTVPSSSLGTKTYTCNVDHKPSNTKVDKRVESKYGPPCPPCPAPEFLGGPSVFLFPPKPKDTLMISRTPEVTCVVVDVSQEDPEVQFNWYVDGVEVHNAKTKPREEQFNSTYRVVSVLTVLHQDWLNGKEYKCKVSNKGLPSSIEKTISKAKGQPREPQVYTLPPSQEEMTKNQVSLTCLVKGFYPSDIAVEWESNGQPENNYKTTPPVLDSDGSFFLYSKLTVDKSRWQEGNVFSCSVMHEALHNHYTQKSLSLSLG
light: B4 light
notes: also called ELB01101; H7 IgG4 WT

EC50 of IFN-gamma production by NK cells, additional improvement against the IgG1 variants [2]: 2 logs | EC50 of IFN-gamma production by NK cells, improvement against ELB02101 [2]: 4 logs | Kd [4]: 1.55 nM | koff [4]: 0.000662 s⁻¹ | kon [4]: 427000 M⁻¹ s⁻¹
B8: F04 in the IgG1 E345K format (antibody)
heavy: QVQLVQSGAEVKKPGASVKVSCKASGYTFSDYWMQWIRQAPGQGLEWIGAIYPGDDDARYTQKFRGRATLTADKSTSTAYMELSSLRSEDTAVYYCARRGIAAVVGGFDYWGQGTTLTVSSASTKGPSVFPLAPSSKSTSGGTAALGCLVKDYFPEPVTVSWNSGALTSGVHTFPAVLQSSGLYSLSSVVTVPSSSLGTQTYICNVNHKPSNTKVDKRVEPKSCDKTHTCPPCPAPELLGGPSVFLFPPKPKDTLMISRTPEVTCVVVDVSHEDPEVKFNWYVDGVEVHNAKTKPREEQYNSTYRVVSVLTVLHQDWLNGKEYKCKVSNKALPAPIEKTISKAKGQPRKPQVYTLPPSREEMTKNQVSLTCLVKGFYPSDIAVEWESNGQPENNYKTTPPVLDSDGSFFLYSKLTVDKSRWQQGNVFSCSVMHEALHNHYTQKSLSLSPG
light: B4 light
notes: also called ELB02113

Kd [6]: 2.91 nM | koff [6]: 0.00148 s⁻¹ | kon [6]: 507000 M⁻¹ s⁻¹ | Kd [7]: 14.5 nM | koff [7]: 0.00297 s⁻¹ | kon [7]: 205000 M⁻¹ s⁻¹ | Kd [8]: 2.91 nM | koff [8]: 0.00148 s⁻¹ | kon [8]: 507000 M⁻¹ s⁻¹
B9: H7 IgG4 S228P/R409K/H310A/H435Q (antibody)
heavy: B5 heavy with S30T, A50S
light: B4 light
notes: also called ELB01102; H7 IgG4 H310A-H435Q
